The text below walks through data of patent US20110300113A1, “Death Receptor CD95 Controls Neurogenesis of Adult Neural Stem Cells in Vivo and in Vitro” (DEUTSCHES KREBSFORSCHUNGSZENTRUM, priority 2006, published 2011).

One assay deals with neural progenitor cells. The assay can be described thus: Proliferation rate of neural progenitor cells. Particulars: compared to untreated cells; data not shown. Format: cell-based, mouse. Here is the method:
Mouse adult neural stem cell culture. NSCs were isolated as previously described^30. Briefly, 6 week old female C57BL6 mice were sacrificied and tissue from hippocampus, SVZ and spinal cord was dissected out. The tissue was digested, washed and cultured in Neurobasal Medium (Invitrogen Karlsruhe, Germany) supplemented with B27 (Invitrogen), Penicillin-Streptomycin (Invitrogen), Glutamax (Invitrogen), Heparin (2 μg/ml) (Sigma) and the growth factors EGF (20 ng/ml) (Promocell) and bFGF (20 ng/ml) (Promocell). After 7 days in culture neurospheres were harvested by centrifugation, dissociated using trypsin (Invitrogen) and replated. Cells were passaged once to twice weekly. Cells used for experiments were passaged between 10 to 15 times. Cells were stimulated with 10 μM Retinoic Acid or 1 activation unit of CD95L-T4. One activation unit was defined as the amount of CD95L-T4 required to increase phosphorylation of GSK3β. Activation units were defined freshly for each batch of CD95L-T4 and varied from 5-40 ng/ml.

The next assay addresses T1, CD95 (Mus musculus, UniProt P25446).
T1 construct: pp60 and p85 association to CD95 increased at 1 minutes and 5 minutes after stimulation of NSCs with 1 U CD95L-T4; endogenous in cells; host or cells: mouse adult neural stem cells (C57BL6)
T1 sequence (P25446 22-327): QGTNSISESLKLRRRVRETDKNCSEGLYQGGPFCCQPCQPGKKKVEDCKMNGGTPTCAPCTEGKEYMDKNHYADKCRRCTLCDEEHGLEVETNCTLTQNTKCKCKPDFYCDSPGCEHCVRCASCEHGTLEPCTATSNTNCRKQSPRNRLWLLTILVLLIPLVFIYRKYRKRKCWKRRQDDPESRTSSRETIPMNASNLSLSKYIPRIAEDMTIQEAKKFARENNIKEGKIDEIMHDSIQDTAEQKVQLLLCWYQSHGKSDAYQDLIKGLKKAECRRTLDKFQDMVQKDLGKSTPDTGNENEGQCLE
The assay can be described thus: Immunoprecipitation of CD95 / phosphotyrosine from stimulated NSCs. Format: cell-based. Particulars: NSCs or developing neurons. How it is done: Immunoprecipitation. 2×10^7 cells were either treated with 1 activation unit (5-40 ng/ml depending on the batch of CD95L-T4) or 5000 ng/ml CD95L-T4 for 1 and 5 minutes (unless otherwise indicated) at 37° C. or left untreated, washed twice in PBS plus phosphatase inhibitors (NaF, NaN3, pNPP, NaPPi, β-Glycerolphosphate, 10 mM each and 2 mM orthovanadate), and subsequently lysed in buffer A (20 mM Tris/HCl, pH 7.5, 150 mM NaCl, 2 mM EDTA, 1 mM phenylmethylsulfonyl fluoride, protease inhibitor cocktail (Roche), 1% Triton X-100 (Serva, Heidelberg, Germany), 10% glycerol, and phosphatase inhibitors (NaF, NaN3, pNPP, NaPPi, 1′-Glycerolphosphate, 10 mM each and 2 mM orthovanadate) (stimulated condition) or lysed without treatment (unstimulated condition). Protein concentration was determined using BCA kit (Pierce). 1 mg of protein was immunoprecipitated overnight with either 5 μg anti-CD95 AB Jo2 or 5 μg anti-phospho tyrosine antibody (pTyr 4G10 (Upstate)) and 30 μl protein-A Sepharose. Beads were washed 5 times with 20 volumes of lysis buffer. The immunoprecipitates were mixed with 60 μl of Laemmli buffer and 30 μl were analyzed on either 15% or 7.5% SDS-PAGE. […]

A further assay relates to NSCs. Briefly: Apoptosis and caspase activity in NSCs. Format: cell-based, mouse. Here is the method:
For staining of intracellular markers, cells were harvested, fixed with 4% PFA for 10 min on ice, washed and permeabilized using 0.1% Saponin (Sigma-Aldrich) in PBS with 10% FCS (SAP). Cells were incubated with primary antibody or isotype for 30 min on ice. Cells were washed three time with SAP and incubated with secondary antibody for 30 min on ice. Cells were washed again three times with SAP and analysed. Antibodies used were: anti β-III-tubulin (Chemicon) 1:100, anti GFAP (Chemicon) 1:100 and isotype mouse IgG1 (Sigma) 1:20. Secondary antibody was goat anti-mouse PE 1:100 (Dianova). To quantify DNA fragmentation, cells detached with trypsin were centrifuged, washed and fixed with 70% ethanol at −20° C. for 1 h. Fixed cells were resuspended in a hypotonic lysis buffer (0.1% sodium citrate and 0.1% Triton X-100) containing […] of propidium iodide, incubated at 4° C. overnight. After final washings, all samples were analysed using a FACS-Calibur (Becton Dickinson) and CellQuest Software (Becton Dickinson).
Caspase Activity Assay. Apostat Intracellular Caspase Detection Caspase Activity Assay was purchased from R&D Systems. Assay was performed according to the manufacturers' instructions and analyzed using a FACSCalibur (Becton Dickinson) and CellQuest software (Becton Dickinson).

B1: CD95L: the ligand for CD95 (APO-1/Fas) (protein, listed as Homo sapiens)
chain: MQQPFNYPYPQIYWVDSSASSPWAPPGTVLPCPTSVPRRPGQRRPPPPPPPPPLPPPPPPPPLPPLPLPPLKKRGNHSTGLCLLVMFFMVLVALVGLGLGMFQLFHLQKELAELRESTSQMHTASSLEKQIGHPSPPPEKKELRKVAHLTGKSNSRSMPLEWEDTYGIVLLSGVKYKKGGLVINETGLYFVYSKVYFRGQSCNNLPLSHKVYMRNSKYPQDLVMMEGKMMSYCTTGQMWARSSYLGAVFNLTSADHLYVNVSELSLVNFEESQTFFGLYKL
modifications: CHAIN (1)..(281) This feature is the amino acid sequence for CD95L protein. CD95L is a ligand for CD95. CD95 is APO-1/Fas and a member of the tumor necrosis factor receptor superfamily.
For B1, in the assay on neural progenitor cells, the proliferation rate entry is on record as “did not lead to significant changes in the proliferation rate”. Besides, the “FADD recruitment to CD95” value with CD95 was “did not induce efficient recruitment of the adaptor molecule FADD”. Besides, the apoptosis result with NSCs is on record as “could not detect apoptosis”.
